Data from article PMC4434712 (Proceedings of the National Academy of Sciences of the …, 2015).
Like-named read-outs stand apart in the source and are kept apart here.

Assays:
Experiment in all cases: crystal structure
VZV glycoprotein gL [1] = target: T1, VZV glycoprotein gL (varicella-zoster virus, UniProt P09308)
[2] = target: T2, VZV glycoprotein gH (ectodomain, as in the gHgL crystal structures) (varicella-zoster virus, UniProt P09260)
VZV glycoprotein gL [3] = target: T1, VZV glycoprotein gL; remark: listed apart in the source
[4] = target: T2, VZV glycoprotein gH (ectodomain, as in …); remark: listed apart in the source

T1 sequence (P09308 22-159): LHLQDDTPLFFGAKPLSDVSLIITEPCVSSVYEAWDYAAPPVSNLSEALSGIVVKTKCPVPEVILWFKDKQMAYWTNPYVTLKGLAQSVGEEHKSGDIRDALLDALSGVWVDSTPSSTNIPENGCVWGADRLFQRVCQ
T2 sequence (P09260 18-795): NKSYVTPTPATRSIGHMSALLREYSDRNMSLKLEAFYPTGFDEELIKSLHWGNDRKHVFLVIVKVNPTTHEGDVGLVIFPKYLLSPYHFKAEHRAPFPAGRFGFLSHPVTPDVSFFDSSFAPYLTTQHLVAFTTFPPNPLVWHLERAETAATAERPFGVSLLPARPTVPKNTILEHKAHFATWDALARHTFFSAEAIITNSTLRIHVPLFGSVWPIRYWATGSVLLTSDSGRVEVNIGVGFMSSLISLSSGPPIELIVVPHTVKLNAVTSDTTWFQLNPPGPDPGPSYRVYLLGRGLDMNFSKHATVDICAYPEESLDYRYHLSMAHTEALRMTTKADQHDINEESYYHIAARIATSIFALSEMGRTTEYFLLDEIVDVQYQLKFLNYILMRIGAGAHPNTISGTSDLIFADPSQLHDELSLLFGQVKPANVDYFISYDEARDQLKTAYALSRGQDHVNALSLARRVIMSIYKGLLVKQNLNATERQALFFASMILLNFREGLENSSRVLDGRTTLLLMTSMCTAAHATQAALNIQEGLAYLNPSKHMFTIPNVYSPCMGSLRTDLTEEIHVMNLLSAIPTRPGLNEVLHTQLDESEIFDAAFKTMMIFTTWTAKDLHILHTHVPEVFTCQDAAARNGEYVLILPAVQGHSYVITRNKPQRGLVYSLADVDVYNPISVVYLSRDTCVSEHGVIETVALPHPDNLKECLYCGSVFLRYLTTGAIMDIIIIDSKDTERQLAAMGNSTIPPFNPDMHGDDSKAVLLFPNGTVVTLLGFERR

Row | Binder | binding result (VZV glycoprotein gL [1]) | binding result [2] | binding result (VZV glycoprotein gL [3]) | binding result [4]
1 | Fab-94, Fab fragment of the human monoclonal antibody IgG-94 (Fab, V domains shown) VH: EVQLVESGGGVVQPGRSLRLSCGASGFTFNTYAMHWVRQAPGKGVEWVAVVSDGGGNRYYAASVKGRFTISRDNSKNTLFLQLNTLRPEDTAVYYCARSRGNHYYYGMDVWGRGTTVTVSS VL: DIQMTQSPSSVSASVGDRVTITCRASQGISSWLAWYQQKPGKAPKLLIYAASSLQSGVPSRFSGSGSGTDFTLTISSLQPEDFATYYCQQANNFPLTFGGGTKVEIK | binds | binds |  | 
2 | Fab-RC, Fab fragment of the human monoclonal antibody IgG-RC (Fab, V domains shown) VH: QVQLVQSGAEMKKPGASVKVSCKASGYTFIGYHLHWVRQAPGQGLEWMGWINPNSGETNYAQKFQDWVTMTRDTSINTAYMELRLRSDDTAVYYCARGGMTMVRGVMMDWGQGTLVTVSS VL: DIQMTQSPSFLSASVGDRVTITCRASQGLDNFLAWYQQKPGKAPKLLIYAASTLQRGVPSRFGGSGSGTEFTLTISSLQPEDFATYYCQQLNSYSLTFGPGTKVEIK |  |  | binds | binds
